Patent US20250297004A1, “NECTIN-4 BINDING AGENTS” (INNATE PHARMA, priority 2022, published 2025)
Changes are numbered by the printed parent chain. Blank lines part the entries; values can stand above or below the molecule they belong to.

Assays:
[1] = molecular target: T1, human Nectin-4 expressed on cells (human, UniProt Q96NY8 32-510); experiment: flow cytometry on SUM190 cells, MedFI at saturation
T1 construct: On SUM190, SUM185, MDA-MB-468 cells (endogenous) or transfected cells; 31-residue signal peptide left out; also called huN4; wild-type human Nectin-4
T1 sequence: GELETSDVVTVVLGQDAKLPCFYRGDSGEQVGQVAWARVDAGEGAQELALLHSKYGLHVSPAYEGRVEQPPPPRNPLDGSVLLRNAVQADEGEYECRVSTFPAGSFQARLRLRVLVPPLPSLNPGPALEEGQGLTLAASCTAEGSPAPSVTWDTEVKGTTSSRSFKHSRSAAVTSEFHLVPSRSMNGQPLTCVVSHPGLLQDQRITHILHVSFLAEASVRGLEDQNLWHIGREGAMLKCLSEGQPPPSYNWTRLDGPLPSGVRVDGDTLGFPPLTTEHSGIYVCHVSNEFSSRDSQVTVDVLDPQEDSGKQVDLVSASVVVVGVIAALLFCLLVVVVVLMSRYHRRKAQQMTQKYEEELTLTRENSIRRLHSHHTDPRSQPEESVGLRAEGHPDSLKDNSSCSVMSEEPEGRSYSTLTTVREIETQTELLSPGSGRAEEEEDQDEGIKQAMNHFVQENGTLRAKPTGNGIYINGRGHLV
Protocol: The humanized antibodies in Table 3 of Example 3 and in Table 6 of Example 5 were cloned, produced and purified, then tested for binding to Nectin-4 expressing cells by flow cytometry. Binding of humanized variants in human IgG1 format was determined on the SUM190 cell line expressing high levels of Nectin-4.

[2] = molecular target: T1, human Nectin-4 expressed on cells; experiment: cell-based or functional assay
[3] = molecular target: T1, human Nectin-4 expressed on cells; experiment: cell-based or functional assay; remark: listed apart in the source
human Nectin-4 = molecular target: T2, human Nectin-4 (Homo sapiens, UniProt Q96NY8); experiment: Binding to human Nectin-4 by SPR; details: for ka: SPR association constant; for kd: SPR dissociation constant; for Kd: SPR, human IgG1 isotype antibodies
T2 sequence (Q96NY8 32-510): T1 sequence
Protocol: (§1) The antibodies in Table 3 of Example 3 were cloned as human IgG1 isotype antibodies, produced and purified, then tested for binding to human Nectin-4. Affinity of the 16 humanized variants, as well as their association and dissociation constants were assessed by SPR analysis. Table 4 summarizes all the calculated constants (Affinity constant KD (nM), association constant ka (1/Ms) and dissociation constant kd (1/s)).
as §1, with “Table 6” for “Table 3”, “Example 5” for “Example 3”, “Table 7” for “Table 4”

[4] = molecular target: human Nectin-4 (protein used in the SPR affinity measurements) (human) (UniProt Q96NY8); experiment: SPR, human IgG1

Max MedFi [1]: 22900 MedFI | internalization efficiency on MDA-MB-468, normalized to chimeric parental antibody (Fab-ZAP, CTG), first column [2]: 13.7 % of chimeric parental | internalization efficiency on MDA-MB-468, normalized to chimeric parental antibody (Fab-ZAP, CTG), second column [2]: 13.7 % of chimeric parental | internalization efficiency on SUM190, normalized to chimeric parental antibody (Fab-ZAP, CTG), experiment 1 [3]: 69.8 % of chimeric parental | internalization efficiency on SUM190, normalized to chimeric parental antibody (Fab-ZAP, CTG), experiment 2 [3]: 45.5 % of chimeric parental | ka (human Nectin-4; first set (Table 4)): 310000 M⁻¹ s⁻¹ | kd (human Nectin-4; first set (Table 4)): 0.0081 s⁻¹ | Kd (human Nectin-4; first set (Table 4)): 25.9 nM | Kd [4]: 25.9 nM | koff [4]: 0.0081 s⁻¹ | kon [4]: 310000 M⁻¹ s⁻¹
B1: H3L2 (antibody, human IgG1, V domains shown)
VH: QVQLVQSGAEVKKPGASVKVSCKASGYIFTSYWMHWVRQAPGQGLEWMGEIDPSDSYTNYNQKFKGRVTMTLDKSTSTTYMELSSLRSEDTAVYYCARGYGNYGDYWGQGTLVTVSS
VL: DVVMTQSPLSNPVTPGEPASISCRSSKSLLHSNGITYLYWYLQKPGQSPQLLIYQMSNLASGVPDRFSSSGSGTDFTLKISRVEAEDVGVYYCAQNLELPWTFGGGTKVEIK
notes: human IgG1 isotype

Max MedFi [1]: 15500 MedFI | internalization efficiency on MDA-MB-468, normalized to chimeric parental antibody (Fab-ZAP, CTG), first column [2]: -36.2 % of chimeric parental | internalization efficiency on MDA-MB-468, normalized to chimeric parental antibody (Fab-ZAP, CTG), second column [2]: -36.2 % of chimeric parental | internalization efficiency on SUM190, normalized to chimeric parental antibody (Fab-ZAP, CTG), experiment 1 [3]: 65.9 % of chimeric parental | internalization efficiency on SUM190, normalized to chimeric parental antibody (Fab-ZAP, CTG), experiment 2 [3]: 35.4 % of chimeric parental | ka (human Nectin-4; first set (Table 4)): 170000 M⁻¹ s⁻¹ | ka (human Nectin-4; second set (Table 7)): 170000 M⁻¹ s⁻¹ | kd (human Nectin-4; first set (Table 4)): 0.014 s⁻¹ | kd (human Nectin-4; second set (Table 7)): 0.014 s⁻¹ | Kd (human Nectin-4; first set (Table 4)): 80.2 nM | Kd (human Nectin-4; second set (Table 7)): 80.2 nM | Kd [4]: 80.2 nM | koff [4]: 0.014 s⁻¹ | kon [4]: 170000 M⁻¹ s⁻¹
B2: H0L0 (antibody, human IgG1, V domains shown)
VH: B1 VH with I28T, L72R, K74T, T79V
VL: B1 VL with V2I, N11L, S69G
notes: human IgG1 isotype; also called HOLO; humanized 5E7 variant H0L0

Max MedFi [1]: 17600 MedFI | internalization efficiency on MDA-MB-468, normalized to chimeric parental antibody (Fab-ZAP, CTG), first column [2]: 1.2 % of chimeric parental | internalization efficiency on MDA-MB-468, normalized to chimeric parental antibody (Fab-ZAP, CTG), second column [2]: 1.2 % of chimeric parental | internalization efficiency on SUM190, normalized to chimeric parental antibody (Fab-ZAP, CTG), experiment 1 [3]: 81.4 % of chimeric parental | internalization efficiency on SUM190, normalized to chimeric parental antibody (Fab-ZAP, CTG), experiment 2 [3]: 69.7 % of chimeric parental | ka (human Nectin-4; first set (Table 4)): 110000 M⁻¹ s⁻¹ | kd (human Nectin-4; first set (Table 4)): 0.0041 s⁻¹ | Kd (human Nectin-4; first set (Table 4)): 35.8 nM | Kd [4]: 35.8 nM | koff [4]: 0.0041 s⁻¹ | kon [4]: 110000 M⁻¹ s⁻¹
B3: H3L0 (antibody, human IgG1, V domains shown)
VH: B1 VH
VL: B1 VL with V2I, N11L, S69G
notes: human IgG1 isotype

Max MedFi [1]: 17200 MedFI | internalization efficiency on MDA-MB-468, normalized to chimeric parental antibody (Fab-ZAP, CTG), first column [2]: 48.2 % of chimeric parental | internalization efficiency on MDA-MB-468, normalized to chimeric parental antibody (Fab-ZAP, CTG), second column [2]: 48.2 % of chimeric parental | internalization efficiency on SUM190, normalized to chimeric parental antibody (Fab-ZAP, CTG), experiment 1 [3]: 82.1 % of chimeric parental | internalization efficiency on SUM190, normalized to chimeric parental antibody (Fab-ZAP, CTG), experiment 2 [3]: 41 % of chimeric parental | ka (human Nectin-4; first set (Table 4)): 400000 ± 30000 M⁻¹ s⁻¹ | kd (human Nectin-4; first set (Table 4)): 0.0087 ± 0.0004 s⁻¹ | Kd (human Nectin-4; first set (Table 4)): 22 ± 0.4 nM | Kd [4]: 22 nM | koff [4]: 0.0087 s⁻¹ | kon [4]: 400000 M⁻¹ s⁻¹
B4: H3L1 (antibody, human IgG1, V domains shown)
VH: B1 VH
VL: B1 VL with N11L
notes: human IgG1 isotype

Max MedFi [1]: 16700 MedFI | internalization efficiency on MDA-MB-468, normalized to chimeric parental antibody (Fab-ZAP, CTG), first column [2]: -35.5 % of chimeric parental | internalization efficiency on MDA-MB-468, normalized to chimeric parental antibody (Fab-ZAP, CTG), second column [2]: -35.5 % of chimeric parental | internalization efficiency on SUM190, normalized to chimeric parental antibody (Fab-ZAP, CTG), experiment 1 [3]: 74.2 % of chimeric parental | internalization efficiency on SUM190, normalized to chimeric parental antibody (Fab-ZAP, CTG), experiment 2 [3]: 61.8 % of chimeric parental | ka (human Nectin-4; first set (Table 4)): 130000 M⁻¹ s⁻¹ | kd (human Nectin-4; first set (Table 4)): 0.0062 s⁻¹ | Kd (human Nectin-4; first set (Table 4)): 46.4 nM | Kd [4]: 46.4 nM | koff [4]: 0.0062 s⁻¹ | kon [4]: 130000 M⁻¹ s⁻¹
B5: H2L0 (antibody, human IgG1, V domains shown)
VH: B1 VH with I28T
VL: B1 VL with V2I, N11L, S69G
notes: human IgG1 isotype

Max MedFi [1]: 17300 MedFI | internalization efficiency on MDA-MB-468, normalized to chimeric parental antibody (Fab-ZAP, CTG), first column [2]: -7.4 % of chimeric parental | internalization efficiency on MDA-MB-468, normalized to chimeric parental antibody (Fab-ZAP, CTG), second column [2]: -7.4 % of chimeric parental | internalization efficiency on SUM190, normalized to chimeric parental antibody (Fab-ZAP, CTG), experiment 1 [3]: 83.7 % of chimeric parental | internalization efficiency on SUM190, normalized to chimeric parental antibody (Fab-ZAP, CTG), experiment 2 [3]: 58.6 % of chimeric parental | ka (human Nectin-4; first set (Table 4)): 110000 M⁻¹ s⁻¹ | kd (human Nectin-4; first set (Table 4)): 0.0072 s⁻¹ | Kd (human Nectin-4; first set (Table 4)): 67.3 nM | Kd [4]: 67.3 nM | koff [4]: 0.0072 s⁻¹ | kon [4]: 110000 M⁻¹ s⁻¹
B6: H1L0 (antibody, human IgG1, V domains shown)
VH: B1 VH with I28T, K74T
VL: B1 VL with V2I, N11L, S69G
notes: human IgG1 isotype
